Experimental findings from US20140120578 are described below.

Holding throughout (experiment): cell_activity
The subject of series [1] is FucT1_T01 TALEN right monomer (synthetic). The conditions noted are these: yeast assay as pair, full target SEQ 66 (right half printed differently from Table 1), 37 C; 0.6 at 30 C.
In series [2] the test system is XylT_T03 TALEN right monomer (synthetic).
The test system of series [3] is XylT_T04 TALEN right monomer (synthetic).
Series [4] has as its system FucT1_T02/FucT2_T02 TALEN right monomer (synthetic).
In series [5] the test system is FucT2_T01 TALEN right monomer (synthetic). The conditions noted are these: yeast assay as pair, full target SEQ 67, 37 C; 0.8 at 30 C.
Series [6] relates to XylT_T04 TALEN left monomer (synthetic).
Series [7] concerns FucT1_T01 TALEN left monomer (synthetic). The conditions noted are these: yeast assay as pair, full target SEQ 66 (right half printed with CTAAGC there vs AATAAGC in Table 1), 37 C; 0.6 at 30 C.
In series [8] the test system is FucT2_T01 TALEN left monomer (synthetic). The conditions noted are these: yeast assay as pair, full target SEQ 67, 37 C; 0.8 at 30 C.
For series [9], the system named is FucT2_T02 TALEN left monomer (synthetic). Conditions: for activity: N. benthamiana protoplasts.
Series [10] relates to FucT1_T02 TALEN left monomer (synthetic). The conditions noted are these: for activity: N. benthamiana protoplasts.
For series [11], the system named is XylT_T03 TALEN left monomer (synthetic).
The subject of series [12] is FucT_T04 TALEN left monomer (synthetic). The conditions noted are these: yeast assay as pair, targets SEQ 70 and 71 (same value), 37 C; 0.5 at 30 C.
For series [13], the system named is FucT_T04 TALEN right monomer (synthetic). The conditions noted are these: yeast assay as pair, targets SEQ 70 and 71 (same value), 37 C; 0.5 at 30 C.
The mark [14] stands for this setting: N. benthamiana protoplasts, pair, XylT1 locus, XylT2 63.9%.
Where [15] appears, read: yeast assay as pair, full target SEQ 65, 37 C, 0.9 at 30 C.

“AATAAGCAATGGCGCAA (double strand) [FucT1_T01 right half-site (top strand as printed)]” had an activity (relative to I-SceI) in series [1] of 0.8.
Sequence “ATCACTCTCTATCTCTA (double strand) [XylT_T03 right half-site (top strand as printed)]” returned an activity in series [2] (N. benthamiana protoplasts, pair, XylT1 locus, XylT2 28.2%) of 34.4 % NHEJ. The same sequence yielded an activity (relative to I-SceI) in series [2] (yeast assay as pair, full target SEQ 64, 37 C, 0.7 at 30 C) of 0.9.
Consider “CTCTACTTCTCTTCCCA (double strand) [XylT_T04 right half-site (top strand as printed)]”, for which the activity in series [3] (setting [14]) is 73.8 % NHEJ. For the same sequence, the activity (relative to I-SceI) in series [3] (setting [15]) was 0.9.
On to “CTCTGTTCGTTGCCCTA (double strand) [FucT_T02 right half-site (top strand as printed)]”, for which, in series [4] (N. benthamiana protoplasts, pair FucT1_T02 at FucT1, 24.7% at FucT2, with FucT2_T02 left monomer 46.5/45.0%), the activity turned out to be 39.2 % NHEJ. This sequence also yielded an activity (relative to I-SceI) in series [4] (yeast assay as pair with FucT1 or FucT2 left monomer, targets SEQ 68 and 69, 37 C, 0.7 at 30 C) of 0.9.
“GATAAACAATGGCGCAA (double strand) [FucT2_T01 right half-site (top strand as printed)]” had an activity (relative to I-SceI) in series [5] of 0.9.
In turn, “TCTCTTCGCTCTCAACT (double strand) [XylT_T04 left half-site]” yielded an activity in series [6] (setting [14]) of 73.8 % NHEJ. In [6] (setting [15]), this sequence returned an activity (relative to I-SceI) of 0.9.
The sequence “TGAGATCGGCGTCAAAT (double strand) [FucT1_T01 left half-site]” registered an activity (relative to I-SceI) in series [7] of 0.8.
In the case of “TGAGATCGTCGTCAAAT (double strand) [FucT2_T01 left half-site]”, the activity (relative to I-SceI) in [8] was 0.9.
Regarding “TTCAAACGCACCCAATA (double strand) [FucT1_T02 left half-site]”, the activity in [9] (pair FucT2_T02, FucT1 locus (1-bp mismatch), control 0.79%) turned out to be 46.5 % NHEJ; in series [10] (pair FucT1_T02, FucT1 locus, control 0.79%), 39.2 % NHEJ. The sequence further displayed an activity (relative to I-SceI) in series [10] (yeast assay as pair, full target SEQ 68, 37 C, 0.7 at 30 C) of 0.9.
“TTCAAACGCACCCGATA (double strand) [FucT2_T02 left half-site]”: the activity in series [9] (pair FucT2_T02, FucT2 locus, control 0.14%) was found to be 45 % NHEJ; in series [10] (pair FucT1_T02, FucT2 locus (1-bp mismatch), control 0.14%), 24.7 % NHEJ. Also, the activity (relative to I-SceI) in series [9] (yeast assay as pair, full target SEQ 69, 37 C, 0.7 at 30 C) was determined as 0.9.
Consider “TTCTTGTTTCTCTCTTC (double strand) [XylT_T03 left half-site]”, for which, in [11] (N. benthamiana protoplasts, pair, XylT1 locus, XylT2 28.2%, controls 0.36/0.06%), the activity came to 34.4 % NHEJ. The sequence further registered an activity (relative to I-SceI) in series [11] (yeast beta-galactosidase assay as pair, full target SEQ 64, 37 C, 0.7 at 30 C) of 0.9.
In series [12], “TTGCCTCTGTTCGTTGC (double strand) [FucT_T04 left half-site]” displayed an activity (relative to I-SceI) of 0.6.
Turning to “TTTCTGGTTCGACTCGA (double strand) [FucT_T04 right half-site (top strand as printed)]”, the activity (relative to I-SceI) in [13] was found to be 0.6.
